Measurements: PMC4390766
pKd: −log10 of the molar value. Like-named read-outs stand apart in the source and are kept apart here.

Experiments:
β-catenin [1] = target: β-catenin (UniProt P35222); settings: cited from earlier work
β-catenin [2] = target: β-catenin (UniProt P35222); settings: cited from earlier work; remark: listed apart in the source
[3] = target: HMP-2_(54arm) (C. elegans) (UniProt O44326); experiment: ITC
[4] = target: HMP-2_(54end) (C. elegans) (UniProt O44326); experiment: ITC

Chain of UniProt P35222 (P35222 2-781): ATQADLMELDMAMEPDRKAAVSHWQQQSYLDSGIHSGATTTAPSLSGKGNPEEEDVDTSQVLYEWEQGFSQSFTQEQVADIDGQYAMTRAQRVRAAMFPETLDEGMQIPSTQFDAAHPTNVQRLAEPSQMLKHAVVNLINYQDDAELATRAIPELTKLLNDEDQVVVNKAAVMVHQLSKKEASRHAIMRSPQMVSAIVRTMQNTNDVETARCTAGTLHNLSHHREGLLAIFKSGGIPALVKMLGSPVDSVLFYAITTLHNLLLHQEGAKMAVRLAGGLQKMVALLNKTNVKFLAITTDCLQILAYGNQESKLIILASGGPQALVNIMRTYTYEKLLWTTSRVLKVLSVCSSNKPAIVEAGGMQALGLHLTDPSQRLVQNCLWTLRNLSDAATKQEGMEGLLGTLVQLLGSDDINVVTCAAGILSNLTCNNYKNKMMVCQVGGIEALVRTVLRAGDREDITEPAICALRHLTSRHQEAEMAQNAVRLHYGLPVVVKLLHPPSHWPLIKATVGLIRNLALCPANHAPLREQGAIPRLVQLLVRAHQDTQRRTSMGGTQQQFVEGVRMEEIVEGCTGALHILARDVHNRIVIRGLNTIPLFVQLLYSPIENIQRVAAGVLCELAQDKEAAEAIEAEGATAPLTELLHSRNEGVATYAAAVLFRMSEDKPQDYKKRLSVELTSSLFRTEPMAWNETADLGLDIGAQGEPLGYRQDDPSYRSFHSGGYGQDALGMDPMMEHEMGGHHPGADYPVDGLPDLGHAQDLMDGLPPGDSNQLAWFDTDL

pKd [3] | pKd [4] | Substance | pKd (β-catenin [1]) | pKd (β-catenin [2])
– | – | E-cadherin cytoplasmic domain (from UniProt P12830) | 10.28 | 7.34
6.21 | – | HMR-1(T1215A)_(cyto80), non-phosphorylated (domain or fragment) | – | –
6.42 | – | HMR-1_(cyto80) (domain or fragment) | – | –
7.59 | – | pHMR-1(T1215A)_(cyto80) (domain or fragment) | – | –
8.51 | 7.64 | pHMR-1_(cyto80) (domain or fragment) | – | –
